Test results from patent US20240076389A1.
pEC50: −log10 of the molar value.

Key:
[1] = molecular target: cyAXL-ECD displayed on yeast; test: yeast surface display ELISA, non-denatured yeast, goat anti-human F(ab')2-HRP
[2] = molecular target: huMER-ECD displayed on yeast (human) (UniProt Q12866); test: as above
[3] = molecular target: huAXL-ECD displayed on yeast (human) (UniProt P30530); test: as above
[4] = molecular target: huTyro3-ECD displayed on yeast (human) (UniProt Q06418); test: as above
[5] = molecular target: recombinant human AXL extracellular domain, C-terminally His8-tagged (rhAXL-ECD) (human) (UniProt P30530); test: ELISA on coated AXL ECD (100 ng/well)
[6] = molecular target: mouse AXL extracellular domain (Sino cat. 51026-M08H) (mouse) (UniProt Q00993); test: ELISA on coated AXL ECD (100 ng/well)
Sequence of mouse AXL extracellular domain (Sino cat. 51026-M08H) (mouse) (Q00993 19-445, stated change not applied): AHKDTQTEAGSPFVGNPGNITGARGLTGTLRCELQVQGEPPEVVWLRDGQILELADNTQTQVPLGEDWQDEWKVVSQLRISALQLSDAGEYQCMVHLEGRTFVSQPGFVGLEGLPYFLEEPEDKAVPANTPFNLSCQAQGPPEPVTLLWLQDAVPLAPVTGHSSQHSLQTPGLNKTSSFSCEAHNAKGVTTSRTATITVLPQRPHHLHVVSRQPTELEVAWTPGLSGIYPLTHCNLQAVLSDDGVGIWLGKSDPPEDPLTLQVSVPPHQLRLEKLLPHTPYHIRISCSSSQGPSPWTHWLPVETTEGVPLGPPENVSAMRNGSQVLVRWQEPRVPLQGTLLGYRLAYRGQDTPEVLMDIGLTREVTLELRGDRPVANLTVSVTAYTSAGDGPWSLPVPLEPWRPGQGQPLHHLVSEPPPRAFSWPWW

Sequence of recombinant human AXL extracellular domain, C-terminally His8-tagged (rhAXL-ECD) (human) (P30530 other isoform, or with tags, fused parts or gaps limits assumed): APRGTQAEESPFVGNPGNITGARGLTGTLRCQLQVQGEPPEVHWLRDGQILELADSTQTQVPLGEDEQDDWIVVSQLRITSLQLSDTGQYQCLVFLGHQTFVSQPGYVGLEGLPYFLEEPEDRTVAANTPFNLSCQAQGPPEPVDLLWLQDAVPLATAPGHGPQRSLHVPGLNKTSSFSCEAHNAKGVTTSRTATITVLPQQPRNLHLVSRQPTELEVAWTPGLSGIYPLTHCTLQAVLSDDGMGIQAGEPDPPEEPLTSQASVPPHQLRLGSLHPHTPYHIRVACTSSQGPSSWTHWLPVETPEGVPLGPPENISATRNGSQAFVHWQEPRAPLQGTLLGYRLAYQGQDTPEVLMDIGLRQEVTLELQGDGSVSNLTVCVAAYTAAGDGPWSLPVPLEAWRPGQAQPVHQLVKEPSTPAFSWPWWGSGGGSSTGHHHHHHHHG
Sequence of huTyro3-ECD displayed on yeast (human) (Q06418 41-429): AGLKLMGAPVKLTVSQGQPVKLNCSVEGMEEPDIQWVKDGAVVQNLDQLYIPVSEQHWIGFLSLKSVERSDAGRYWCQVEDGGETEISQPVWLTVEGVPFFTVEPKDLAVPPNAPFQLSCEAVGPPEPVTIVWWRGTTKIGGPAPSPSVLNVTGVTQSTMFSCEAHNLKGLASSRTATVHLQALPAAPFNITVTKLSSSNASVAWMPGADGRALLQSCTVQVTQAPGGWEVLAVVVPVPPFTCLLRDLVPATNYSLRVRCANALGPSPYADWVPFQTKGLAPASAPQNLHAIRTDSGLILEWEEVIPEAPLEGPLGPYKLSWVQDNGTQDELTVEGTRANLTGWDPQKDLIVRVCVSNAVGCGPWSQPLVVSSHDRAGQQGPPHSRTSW
Sequence of huAXL-ECD displayed on yeast (human) (P30530 26-449, form in doubt): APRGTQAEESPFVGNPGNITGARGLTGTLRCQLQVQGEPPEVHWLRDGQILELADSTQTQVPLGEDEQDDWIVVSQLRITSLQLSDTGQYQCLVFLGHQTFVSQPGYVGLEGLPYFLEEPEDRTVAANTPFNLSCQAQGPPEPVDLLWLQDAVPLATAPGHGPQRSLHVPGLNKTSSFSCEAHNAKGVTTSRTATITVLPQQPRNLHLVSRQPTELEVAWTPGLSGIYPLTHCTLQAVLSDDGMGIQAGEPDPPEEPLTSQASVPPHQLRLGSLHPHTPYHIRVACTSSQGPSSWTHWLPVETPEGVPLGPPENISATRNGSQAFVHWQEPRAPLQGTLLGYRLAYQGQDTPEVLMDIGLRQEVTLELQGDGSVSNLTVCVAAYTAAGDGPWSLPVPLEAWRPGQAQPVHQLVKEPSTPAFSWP
Sequence of huMER-ECD displayed on yeast (human) (Q12866 21-505): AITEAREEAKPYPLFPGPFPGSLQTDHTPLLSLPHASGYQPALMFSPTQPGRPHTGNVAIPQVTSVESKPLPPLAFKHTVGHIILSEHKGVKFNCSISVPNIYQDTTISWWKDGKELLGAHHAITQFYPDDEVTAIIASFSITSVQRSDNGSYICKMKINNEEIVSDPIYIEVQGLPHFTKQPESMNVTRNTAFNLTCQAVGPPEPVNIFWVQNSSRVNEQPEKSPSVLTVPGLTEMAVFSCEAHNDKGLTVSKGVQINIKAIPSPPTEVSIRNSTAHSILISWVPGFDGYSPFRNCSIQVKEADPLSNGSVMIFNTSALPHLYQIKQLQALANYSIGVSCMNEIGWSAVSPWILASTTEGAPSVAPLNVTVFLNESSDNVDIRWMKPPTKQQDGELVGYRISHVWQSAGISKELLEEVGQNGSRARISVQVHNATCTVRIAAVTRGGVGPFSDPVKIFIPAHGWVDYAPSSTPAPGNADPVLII

yeast ELISA signal normalized to myc expression level [1]	yeast ELISA signal normalized to myc expression level [2]	yeast ELISA signal normalized to myc expression level [3]	yeast ELISA signal normalized to myc expression level [4]	pEC50 [5]	pEC50 [6]	Substance
-0.004	-0.001	0.087	0.059	–	–	hFC-anti-RSV (antibody)
–	–	–	–	7.21	9.00	MAB8541 (R&D Systems), commercial anti-mouse AXL mAb, clone 175128, rat IgG2A (antibody)
